We go through two molecules from patent US20060019324A1.

The target in series [1] is PknB1-279 (His-tagged catalytic kinase core of the Ser/Thr protein kinase PknB, Rv0014c, aa 1-279) (Mycobacterium tuberculosis) (UniProt P9WI81). Nature of the series: cell-based or functional assay.
Series [2] concerns the target T1, PknB1-279 (His-tagged catalytic kinase core of the Ser/Thr protein kinase PknB, Rv0014c, aa 1-279), P9WI81.
T1 chain: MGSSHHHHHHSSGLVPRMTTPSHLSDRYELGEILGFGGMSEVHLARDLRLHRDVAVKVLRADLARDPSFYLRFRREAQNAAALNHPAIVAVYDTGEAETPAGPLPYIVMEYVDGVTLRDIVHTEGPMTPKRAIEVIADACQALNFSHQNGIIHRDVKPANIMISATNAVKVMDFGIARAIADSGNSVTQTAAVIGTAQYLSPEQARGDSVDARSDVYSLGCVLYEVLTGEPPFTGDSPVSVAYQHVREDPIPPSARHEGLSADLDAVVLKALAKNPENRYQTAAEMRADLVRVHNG

Molecule “PstP1-240 (His-tagged catalytic domain of the Ser/Thr protein phosphatase PstP, Rv0018c, aa 1-240) (from UniProt P9WHW5 1-240) (enzyme)” displayed an MALDI-TOF mass of PknB1-279 after treatment with PstP or alkaline phosphatase: phosphate groups removed (phosphate groups) in series [1] of 3.

B1: PstP1-240 (His-tagged catalytic domain of the Ser/Thr protein phosphatase PstP, Rv0018c, aa 1-240) (protein)
chain: MARVTLVLRYAARSDRGLVRANNEDSVYAGARLLALADGMGGHAAGEVASQLVIAALAHLDDDEPGGDLLAKLDAAVRAGNSAIAAQVEMEPDLEGMGTTLTAILFAGNRLGLVHIGDSRGYLLRDGELTQITKDDTFVQTLVDEGRITPEEAHSHPQRSLIMRALTGHEVEPTLTMREARAGDRYLLCSDGLSDPVSDETILEALQIPEVAESAHRLIELALRGGGPDNVTVVVADVVD
Turning to B1, in series [2], the “dephosphorylation of [33P]-autophosphorylated PknB1-279 by PstP, SDS-PAGE and autoradiography, with or without MnCl2” value is “PstP is capable of dephosphorylating PknB”; the “kinase activity of PknB on MBP (thio-γATP) after preincubation with PstP” value is given as “prior dephosphorylation of PknB by PstP inhibits kinase activity on MBP”.
